In test [1] the target is CD3 (Jurkat cells) (human, UniProt P07766). Kind of test: FACS, Jurkat. For orientation: A flow cytometer gives signals particle by particle.
Test [2] has as its target HER3-Fc ECD (human). Kind of test: ELISA. (In general: An ELISA detects its analyte on a solid surface through an enzyme-linked reagent.)
The target of test [3] is HER3 (cell surface) (human). Kind of test: FACS, A375.
Test [4] deals with EGFR ECD (human, UniProt P00533). Briefly: ELISA.
Test [5] deals with EGFR (cell surface) (human, UniProt P00533). Briefly: FACS, FaDu (EGFR and HER3 positive).
Test [6] has as its target HER3-His ECD (human). Briefly: ELISA.
The target in test [7] is HER3-Fc ECD (human). Kind of test: ELISA. This is another data set of the same source.
Test [8] has as its target HER3 (cell surface) (human). Briefly: FACS, MCF-7.
Test [9] deals with HER3-His ECD (human). Kind of test: ELISA. This is another data set of the same source.
Test [10] has as its target HER3 (cell surface) (human). Kind of test: FACS, MCF-7. The source holds these as a separate data set.
In test [11] the target is HER3 (cell surface) (human). Kind of test: FACS, SKBR-3 (EGFR and HER3 positive).
For test [12], the target named is HER3 (cell surface) (human). Briefly: FACS, MCF-7 (Example 22).
In test [13] the target is HER3-His ECD (human). Briefly: ELISA. This is another data set of the same source.

Values joined by “and” are separate entries in the source; they are usually repeats but may differ in a detail not shown here. Identical values can stand only once. Like-named read-outs stand apart in the source and are kept apart here.

CD3 (Jurkat cells), sequence (P07766 23-207): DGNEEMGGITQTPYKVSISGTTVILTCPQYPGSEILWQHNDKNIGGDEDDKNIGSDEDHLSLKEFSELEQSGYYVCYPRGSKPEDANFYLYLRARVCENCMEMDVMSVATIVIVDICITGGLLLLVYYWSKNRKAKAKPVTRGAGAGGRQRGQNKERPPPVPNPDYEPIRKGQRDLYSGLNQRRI

B1: scFv3-43-scDb3-43xhuU3-scFv3-43, CD3 arm (antibody)
chain: METDTLLLWVLLLWVPGSTGQVQLQQSGPGLVKPSQTLSLTCAISGDSVSSNRAAWNWIRQSPSRGLEWLGRTYYRSKWYNDYAQSLKSRITINPDTPKNQFSLQLNSVTPEDTAVYYCARDGQLGLDALDIWGQGTMVTVSSGGGGSDIQMTQSPSSLSASVGDRVTITCRASQDIRNYLNWYQQKPGKAPKLLIYYTSRLHSGVPSRFSGSGSGTDFTFTISSLQPEDIATYYCQQGNTLPWTFGQGTKLEIKRGGGGSGGGGSGGGGSQVQLVQSGAEVKKPGSSVKVSCKASGGTFSGYTMNWVRQAPGQGLEWMGLINPYKGVSTYNGKFKDRVTITADKSTSTAYMELSSLRSEDTAVYYCARSGYYGDSDWYFDVWGQGTLVTVSSGGGGSQAGLTQPPAVSVAPGQTASITCGRDNIGSRSVHWYQQKPGQAPVLVVYDDSDRPAGIPERFSGSNYENTATLTISRVEAGDEADYYCQVWGITSDHVVFGGGTKLTVLAAAGGSGGGGSGGGTQVQLQQSGPGLVKPSQTLSLTCAISGDSVSSNRAAWNWIRQSPSRGLEWLGRTYYRSKWYNDYAQSLKSRITINPDTPKNQFSLQLNSVTPEDTAVYYCARDGQLGLDALDIWGQGTMVTVSSGGGGSGGGGSGGGGSQAGLTQPPAVSVAPGQTASITCGRDNIGSRSVHWYQQKPGQAPVLVVYDDSDRPAGIPERFSGSNYENTATLTISRVEAGDEADYYCQVWGITSDHVVFGGGTKLTVLGSL
The term EC50 denotes the concentration at which the effect is half-maximal. On to B1, for which the EC50 in [1] was determined as 5.2 nM.

B2: scFv3-43-Fc-scTRAIL, HER3 arm (antibody)
chain: QVQLQQSGPGLVKPSQTLSLTCAISGDSVSSNRAAWNWIRQSPSRGLEWLGRTYYRSKWYNDYAQSLKSRITINPDTPKNQFSLQLNSVTPEDTAVYYCARDGQLGLDALDIWGQGTMVTVSSGGGGSGGGGSGGGGSQAGLTQPPAVSVAPGQTASITCGRDNIGSRSVHWYQQKPGQAPVLVVYDDSDRPAGIPERFSGSNYENTATLTISRVEAGDEADYYCQVWGITSDHVVFGGGTKLTVLG
B2: the EC50 turned out to be 0.33 nM in test [2] and 1.19 nM in [3].

B3: Db3-43xhu225-Ig, EGFR arm (antibody)
chain 1: EVQLVESGGGLVQPGGSLRLSCAASGFSLTNYGVHWVRQAPGKGLEWLGVIWSGGNTDYNTPFTSRFTISRDNSKNTLYLQMNSLRAEDTAVYYCARALTYYDYEFAYWGQGTTVTVSSGGGGSQAGLTQPPAVSVAPGQTASITCGRDNIGSRSVHWYQQKPGQAPVLVVYDDSDRPAGIPERFSGSNYENTATLTISRVEAGDEADYYCQVWGITSDHVVFGGGTKLTVLASTKGPSVFPLAPSSKSTSGGTAALGCLVKDYFPEPVTVSWNSGALTSGVHTFPAVLQSSGLYSLSSVVTVPSSSLGTQTYICNVNHKPSNTKVDKKVEPKSCDKTHTCPPCPAPPVAGPSVFLFPPKPKDTLMISRTPEVTCVVVDVSHEDPEVKFNWYVDGVEVHNAKTKPREEQYNSTYRVVSVLTVLHQDWLNGKEYKCKVSNKGLPSSIEKTISKAKGQPREPQVYTLPPSRDELTKNQVSLTCLVKGFYPSDIAVEWESNGQPENNYKTTPPVLDSDGSFFLYSKLTVDKSRWQQGNVFSCSVMHEALHNHYTQKSLSLSPGK
chain 2: QVQLQQSGPGLVKPSQTLSLTCAISGDSVSSNRAAWNWIRQSPSRGLEWLGRTYYRSKWYNDYAQSLKSRITINPDTPKNQFSLQLNSVTPEDTAVYYCARDGQLGLDALDIWGQGTMVTVSSGGGGSDIQLTQSPSFLSASVGDRVTITCRASQSIGTNIHWYQQKPGKAPKLLIKYASESISGVPSRFSGSGSGTEFTLTISSLQPEDFATYYCQQNNNWPTTFGAGTKLEIKRTVAAPSVFIFPPSDEQLKSGTASVVCLLNNFYPREAKVQWKVDNALQSGNSQESVTEQDSKDSTYSLSSTLTLSKADYEKHKVYACEVTHQGLSSPVTKSFNRGEC
B3: the EC50 in test [4] was determined as 0.19 nM; in test [5] it was 0.14 nM.

B4: scDb 3-43xCD3, CD3 arm (antibody)
chain: METDTLLLWVLLLWVPGSTGQVQLQQSGPGLVKPSQTLSLTCAISGDSVSSNRAAWNWIRQSPSRGLEWLGRTYYRSKWYNDYAQSLKSRITINPDTPKNQFSLQLNSVTPEDTAVYYCARDGQLGLDALDIWGQGTMVTVSSGGGGSDIQMTQSPSSLSASVGDRVTITCRASQDIRNYLNWYQQKPGKAPKLLIYYTSRLHSGVPSRFSGSGSGTDFTFTISSLQPEDIATYYCQQGNTLPWTFGQGTKLEIKRGGGGSGGGGSGGGGSQVQLVQSGAEVKKPGSSVKVSCKASGGTFSGYTMNWVRQAPGQGLEWMGLINPYKGVSTYNGKFKDRVTITADKSTSTAYMELSSLRSEDTAVYYCARSGYYGDSDWYFDVWGQGTLVTVSSGGGGSQAGLTQPPAVSVAPGQTASITCGRDNIGSRSVHWYQQKPGQAPVLVVYDDSDRPAGIPERFSGSNYENTATLTISRVEAGDEADYYCQVWGITSDHVVFGGGTKLTVLAAAHHHHHH
On to B4, for which, in test [1], the concentration for a half-maximal effect (EC50) is 2.4 nM and 3.1 nM.

B5: scDb 4D5x3-43-Fc, HER3 arm (antibody, V domains shown)
VH: QVQLQQSGPGLVKPSQTLSLTCAISGDSVSSNRAAWNWIRQSPSRGLEWLGRTYYRSKWYNDYAQSLKSRITINPDTPKNQFSLQLNSVTPEDTAVYYCARDGQLGLDALDIWGQGTMVTVSS
VL: QAGLTQPPAVSVAPGQTASITCGRDNIGSRSVHWYQQKPGQAPVLVVYDDSDRPAGIPERFSGSNYENTATLTISRVEAGDEADYYCQVWGITSDHVVFGGGTKLTVLG
On to B5, for which the EC50 in [6] was 1.9 nM. This counts as single-digit nanomolar.

B6: scDb 3-43xCD3-scFv 3-43, HER3 arms (antibody, V domains shown)
VH: B5 VH
VL: B5 VL
Regarding B6, the EC50 in test [7] is 0.81 nM; in test [8], 0.0316 nM and 0.0314 nM.

B7: Db3-43xhu225-Ig, HER3 arm (antibody, V domains shown)
VH: B5 VH
VL: B5 VL
Take B7: the figures for the EC50 in test [9], in test [10] and in test [11] were 0.26 nM, 0.054 nM and 0.047 nM, respectively.

B8: scDb 3-43xCD3, HER3 arm (antibody, V domains shown)
VH: B5 VH
VL: B5 VL
In the case of B8, the EC50 in test [7] is 3.3 nM and 4.87 nM; in test [8] it was 1.1 nM; in test [12] it was 1.1 nM.

B9: scDb4D5x3-43-LL, HER3 arm (antibody, V domains shown)
VH: B5 VH
VL: B5 VL
The molecule B9 yielded an EC50 in test [7] of 0.93 nM.

B10: scDb 2-35x3-43-Fc, HER3 arm (antibody, V domains shown)
VH: B5 VH
VL: B5 VL
With B10, the EC50 in test [6] was 0.24 nM. This counts as sub-nanomolar.

B11: scFv3-43-scDb3-43xhuU3-scFv3-43, HER3 arms (antibody, V domains shown)
VH: B5 VH
VL: B5 VL
Regarding B11, in test [8], the EC50 stood at 0.0173 nM. This lies in the picomolar range.

B12: scDb hu225x3-43-Fc, HER3 arm (antibody, V domains shown)
VH: B5 VH
VL: B5 VL
As for B12, a half-maximal response in test [13] (EC50) required 0.24 nM. This counts as sub-nanomolar.

B13: scDbhu225x3-43-Fc (GGGGS), HER3 arm (antibody, V domains shown)
VH: B5 VH
VL: B5 VL
In test [6], B13 returned an EC50 of 0.2 nM. This lies in the sub-nanomolar range.

The values are drawn from patent US11008402 (dated 2021).
